How the values were obtained:
Experiment in all cases: EMSA; EMSA: 0.5 pmol FAM-RNA (heated 70 C 5 min, cooled on ice) with 1 ug WT or 2 ug mutant protein in 10 uL Beyotime reaction buffer (composition, salt and pH not stated), 20 min at room temperature; competitor 200 pmol unlabeled RNA; 6% native PAGE in 1x TBE pH 8.3
Conditions in all cases: protein: recombinant; tags: His+SUMO, cleaved with ULP1; single strand
[1] = target: SmU2AF65 Mutant 1 (Schistosoma mansoni, UniProt C4Q2F6 1-521, L255A;R270A;Q284A;V289A)
[2] = target: SmU2AF65 (Schistosoma mansoni, UniProt C4Q2F6 1-521)
[3] = target: SmU2AF65 Mutant 2 (Schistosoma mansoni, UniProt C4Q2F6 1-521, L255A;R270E;Q284R;V289A)

UACAUAAAUUAAUAAGUAUUUUUACUUUUUUUUAUUUUCAAUUUCAACAG (ssRNA) [50-nt intron 3' region consensus RNA]
binding result [1]: binds | binding result [2]: binds | binding result [3]: no binding
